Here are results for one molecule from US20220332829A1 (NANJING SANHOME PHARMACEUTICAL, published 2022).

The target of test [1] is T1, human 4Ig-B7-H3-His protein (human, UniProt Q5ZPR3 29-466).
T1 construct: also called human B7-H3 protein
T1 sequence: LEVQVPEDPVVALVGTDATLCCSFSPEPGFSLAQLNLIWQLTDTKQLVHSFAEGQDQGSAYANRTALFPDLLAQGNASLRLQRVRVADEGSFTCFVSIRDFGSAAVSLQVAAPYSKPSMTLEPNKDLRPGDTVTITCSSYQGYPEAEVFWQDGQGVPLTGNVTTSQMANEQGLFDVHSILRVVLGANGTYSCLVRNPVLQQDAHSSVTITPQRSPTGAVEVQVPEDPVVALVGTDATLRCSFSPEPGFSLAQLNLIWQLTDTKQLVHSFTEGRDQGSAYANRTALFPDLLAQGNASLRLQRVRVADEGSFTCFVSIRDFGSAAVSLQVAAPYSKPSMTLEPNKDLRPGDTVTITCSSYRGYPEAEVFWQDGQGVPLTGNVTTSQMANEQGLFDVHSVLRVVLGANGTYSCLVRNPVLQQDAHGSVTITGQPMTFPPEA
Briefly: ELISA, plate coated with human 4Ig-B7-H3-His, detection with anti-human IgG HRP, OD450. How it is done: (§1) The binding activity of antibodies was analyzed by ELISA. 96-well ELISA plates were coated with human 4Ig-B7-H3-His protein or 2Ig-B7-H3-His protein (1 μg/well, prepared in Examples 1 and 2) and incubated overnight at 4° C. The plates were washed 3 times with 1×PBST and then blocked with 5% skim milk at 37° C. for 2 h. After washing 3 times with 1×PBST, the anti-B7-H3 antibody of the present disclosure was used as the primary antibody and added to the ELISA plates in 5-fold gradient dilution starting from 2 μg/mL with a total of 8 concentrations: 2,000 ng/mL, 400 ng/mL, 80 ng/mL, 16 ng/mL, 3.2 ng/mL, 0.64 ng/mL, 0.128 ng/mL and 0.0256 ng/mL respectively. The plates were incubated at 37° C. for 2 h with hBRCA84D as the positive control antibody. After washing 5 times with 1×PBST, Anti-Human IgG HRP (Jackson, 109-035-003, 1:5000) was used as the secondary antibody and incubated at 37° C. for 1 h. After washing 5 times with 1×PBST, color developing solution TMB was added to the plate, and microplate reader (Thermo, Multiskan FC) was used to read OD450 value after termination of the reaction. EC₅₀ was generated by GraphPad.

In test [2] the target is T2, human 2Ig-B7-H3-His protein (human, UniProt Q5ZPR3 29-463).
T2 sequence: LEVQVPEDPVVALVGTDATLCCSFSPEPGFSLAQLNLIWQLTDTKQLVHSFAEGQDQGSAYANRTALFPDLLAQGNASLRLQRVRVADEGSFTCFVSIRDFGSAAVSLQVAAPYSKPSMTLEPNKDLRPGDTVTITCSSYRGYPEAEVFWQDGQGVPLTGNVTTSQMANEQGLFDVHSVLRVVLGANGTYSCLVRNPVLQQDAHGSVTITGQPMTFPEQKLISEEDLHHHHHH
Briefly: ELISA, plate coated with human 2Ig-B7-H3-His, detection with anti-human IgG HRP, OD450. How it is done:
as §1

The target in test [3] is T3, Cynomolgus B7-H3-His (Sino Biological, Cat. No. 90806-C08H) (cynomolgus monkey).
T3 construct: Bought reagent; also called cynomolgus monkey B7-H3; monkey B7-H3
The test is described as follows: ELISA, plate coated with cynomolgus B7-H3-His, detection with anti-human IgG HRP, OD450. How it is done: The binding activity of antibodies was analyzed by protein based ELISA. Cynomolgus B7-H3-His (0.5 μg/well, Sino Biological, Cat. No. 90806-C08H) was coated on 96-well ELISA plates. The anti-B7-H3 antibodies of the present disclosure was used as the primary antibody and added to the ELISA plates in 5-fold gradient dilution starting from 2 μg/mL with a total of 8 concentrations: 2,000 ng/mL, 400 ng/mL, 80 ng/mL, 16 ng/mL, 3.2 ng/mL, 0.64 ng/mL, 0.128 ng/mL, and 0.0256 ng/mL respectively. The plates were incubated at 37° C. for 2 h with AB06.12-4P as the positive control antibody. Anti-Human IgG HRP (Jackson, 109-035-003, 1:10,000) was used as the secondary antibody. Color developing solution TMB (3,3′,5,5′-tetramethylbenzidine) was added to the plate, and microplate reader (Thermo, Multiskan FC) was used to read OD450 value after termination of the reaction. EC₅₀ was generated by GraphPad.
For orientation: An ELISA detects its analyte on a solid surface through an enzyme-linked reagent.

For test [4], the target named is T4, B7-H3 on surface of tumor cell (786-0, MDA-MB-231, Raji-B7-H3 cells) (human, UniProt Q5ZPR3 29-534).
T4 construct: whole, on cells; The making of Raji-B7-H3 cells is not described; also called B7-H3 on the surface of tumor cells; human B7-H3
T4 sequence (looked up): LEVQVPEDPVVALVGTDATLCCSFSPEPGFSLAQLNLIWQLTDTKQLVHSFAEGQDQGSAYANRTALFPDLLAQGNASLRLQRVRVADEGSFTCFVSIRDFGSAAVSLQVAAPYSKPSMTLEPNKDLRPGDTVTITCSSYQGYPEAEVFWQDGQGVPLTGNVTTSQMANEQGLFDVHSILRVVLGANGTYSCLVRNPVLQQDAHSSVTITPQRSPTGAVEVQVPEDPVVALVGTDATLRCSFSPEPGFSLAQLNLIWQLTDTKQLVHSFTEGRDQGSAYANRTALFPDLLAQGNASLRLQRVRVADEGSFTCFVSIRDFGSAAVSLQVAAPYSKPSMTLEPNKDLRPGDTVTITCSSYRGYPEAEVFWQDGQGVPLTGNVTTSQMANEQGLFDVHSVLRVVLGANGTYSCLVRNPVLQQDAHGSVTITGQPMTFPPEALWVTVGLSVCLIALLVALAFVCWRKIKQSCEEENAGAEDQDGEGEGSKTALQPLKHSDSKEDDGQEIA
Briefly: FACS on Raji-B7-H3 cells. On the procedure: (§2) The binding activity of antibodies to B7-H3 on the surface of tumor cells was analyzed by FACS. Mean fluorescence intensity (MFI) and EC₅₀ detected by FACS indicate the binding activity of the antibody to cells. After 786-0 and MDA-MB-231 cells were digested, they were resuspended in 2% FBS-PBS solution and counted. After raji-B7-H3 cells were collected, they were resuspended in 2% FBS-PBS and counted. The above cells were plated in a cell plate with 1×10⁵ cells per well. The anti-B7-H3 antibody of the present disclosure was used as the primary antibody and added to cell plates in gradient dilution starting from 20 μg/mL with a total of 8 concentrations: 20,000 ng/mL, […], 2,000 ng/mL, 400 ng/mL, 80 ng/mL, 16 ng/mL, 3.2 ng/mL, and 0.64 ng/mL respectively. The plates were incubated at 4° C. for 1 h with hBRCA84D as the positive control antibody. PE-Anti-Human IgG (Biolegend, Cat. No. 409303, 1.25 μl/well) was used as the secondary antibody, washed, and detected for the fluorescence intensity generated by the binding of the antibody to the cell surface by a flow cytometer.

The target of test [5] is T1, human 4Ig-B7-H3-His protein. The test is described as follows: Biacore X100 SPR, 4Ig-B7-H3-His coupled to CM5 chip, antibody injected. The source says: The humanized anti-B7-H3 antibodies prepared in Example 4 were subjected to affinity assay by Biacore. The antigen 4Ig-B7-H3-His was first coupled to the surface of a CM5 chip (GE, Cat. No. BR100012), and the active groups of the uncoupled protein were blocked with ethanolamine. After the baseline was stable, the hu39-01, hu65-13, and hBRCA84D antibodies were respectively diluted in equal proportions. The diluted antibodies of each concentration were placed on the sample injection tray of the instrument in sequence, and the program was set to inject samples respectively.
On the technique in general: Surface plasmon resonance follows binding to a sensor surface in real time, without labels.

Test [6] addresses T4, B7-H3 on surface of tumor cell (786-0, …). The test is described as follows: FACS on MDA-MB-231 cells. On the procedure:
as §2

Test [7] has the same target. Briefly: FACS on 786-0 cells. On the procedure:
as §2

B1: hu51-G34K-12 (antibody, human IgG1, V domains shown)
VH: EVQLVESGGGLVKPGGSLRLSCAASGFTFSSFGMSWVRQAPGKGLEWVATINSGDNYSYSPDSVKGRFTISRDNAKNSLYLQMNSLRAEDTAVYYCARPHIFYYGSPAWFAYWGQGTLVTVSS
VL: DVVMTQSPLSLPVTLGQPASISCRSRQSLVHSNKNTYLHWFQQRPGQSPRLLIYKVSNRFSGVPDRFSGSGSGTDFTLKISRVEAEDVGVYYCSQSTHVPLTFGGGTKVEIK
notes: expressed in HEK293E; also called humanized anti-B7-H3 antibody hu51-G34K-12
As to B1, the EC50 (read off the curve) (commonly the concentration needed to bring the measured effect to its halfway point) is around 0.005 µg/mL in test [1], around 0.005 µg/mL in test [2] and around 0.006 µg/mL in test [3]. The EC50 (in general, the concentration that produces a half-maximal response) in test [4] was 0.12 µg/mL; in test [6], 0.0501 µg/mL; in test [7], 0.12 µg/mL. In addition, the “Mean fluorescence intensity (MFI)” value in test [4] was found to be 584000; in test [6], 156000; in test [7] it was 584000. The affinity in test [5], expressed as Kd, was 0.49 nM. For the same molecule, in test [5], the koff (as a rule, the first-order rate constant of dissociation) turned out to be 0.000385 s⁻¹. The kon (usually a measure of how fast the partners come together) in test [5] came to 785000 M⁻¹ s⁻¹.
